From paper PMC11861162

Biological target: SHIVC109P7 gp140 protein (soluble Env) (HIV-1 subtype C (Env of SHIVC109P7))
Test: native gel or EMSA

For “SHIVC109P7 gp140 protein (soluble Env) (domain or fragment)”, the stoichiometry N was 3.
